From patent publication US7232659 (dated 2007) come the findings set out here.

The labels stand for the following.
T1: formyl peptide receptor with a C-terminal hexahistidine tag (FPR:C-H6) (human, UniProt P21462 1-350)
T1 construct: Solubilized from membranes and captured on dextran chelate nickel (DCNi) beads; also called C-H6:FPR
T1 sequence: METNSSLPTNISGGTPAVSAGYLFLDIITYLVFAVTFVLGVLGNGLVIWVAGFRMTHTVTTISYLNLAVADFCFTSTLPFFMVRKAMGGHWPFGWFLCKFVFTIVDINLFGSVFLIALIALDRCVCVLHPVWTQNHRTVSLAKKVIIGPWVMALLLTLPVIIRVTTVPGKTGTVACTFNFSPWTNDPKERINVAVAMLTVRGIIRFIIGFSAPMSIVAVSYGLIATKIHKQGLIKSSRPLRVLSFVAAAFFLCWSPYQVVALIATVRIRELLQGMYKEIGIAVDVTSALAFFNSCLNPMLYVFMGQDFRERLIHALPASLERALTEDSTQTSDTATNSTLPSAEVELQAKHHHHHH

B1: formyl peptide receptor (FPR), wild type, detergent-solubilized (receptor, human, UniProt P21462 1-350, looked up)
chain: METNSSLPTNISGGTPAVSAGYLFLDIITYLVFAVTFVLGVLGNGLVIWVAGFRMTHTVTTISYLNLAVADFCFTSTLPFFMVRKAMGGHWPFGWFLCKFVFTIVDINLFGSVFLIALIALDRCVCVLHPVWTQNHRTVSLAKKVIIGPWVMALLLTLPVIIRVTTVPGKTGTVACTFNFSPWTNDPKERINVAVAMLTVRGIIRFIIGFSAPMSIVAVSYGLIATKIHKQGLIKSSRPLRVLSFVAAAFFLCWSPYQVVALIATVRIRELLQGMYKEIGIAVDVTSALAFFNSCLNPMLYVFMGQDFRERLIHALPASLERALTEDSTQTSDTATNSTLPSAEVELQAK
notes: Used as a crude dodecyl maltoside extract of U937 membranes, not purified; In ternary complex assays it is occupied by the fluorescent ligand L^F; also called wild type receptor; soluble FPR
B2: formyl-MLFK-FITC (peptide)
peptide: For-MLFK
modifications: also: FITC conjugate, site not given here
notes: all other places print fMLFK-FITC; also called fMLFK-FITC; fluorescent ligand
B3: FPR-GFP fusion protein (receptor)
chain: not shown
notes: also called R^F; receptor-GFP fusion protein
B4: FPR-Giα2 fusion protein (receptor, human;rat)
chain: METNSSLPTNISGGTPAVSAGYLFLDIITYLVFAVTFVLGVLGNGLVIWVAGFRMTHTVTTISYLNLAVADFCFTSTLPFFMVRKAMGGHWPFGWFLCKFVFTIVDINLFGSVFLIALIALDRCVCVLHPVWTQNHRTVSLAKKVIIGPWVMALLLTLPVIIRVTTVPGKTGTVACTFNFSPWTNDPKERINVAVAMLTVRGIIRFIIGFSAPMSIVAVSYGLIATKIHKQGLIKSSRPLRVLSFVAAAFFLCWSPYQVVALIATVRIRELLQGMYKEIGIAVDVTSALAFFNSCLNPMLYVFMGQDFRERLIHALPASLERALTEDSTQTSDTATNSTLPSAEVELQAKAAAMGCTVSAEDKAAAERSKMIDKNLREDGEKAAREVKLLLLGAGESGKSTIVKQMKIIHEDGYSEEECRQYRAVVYSNTIQSIMAIVKAMGNLQIDFADPQRADDARQLFALSCAAEEQGMLPEDLSGVIRRLWADHGVQACFGRSREYQLNDSAAYYLNDLERIAQSDYIPTQQDVLRTRVKTTGIVETHFTFKDLHFKMFDVGGQRSERKKWIHCFEGVTAIIFCVALSAYDLVLAEDEEMNRMHESMKLFDSICNNKWFTDTSIILFLNKKDLFEEKITQSPLTICFPEYTGANKYDEAASYIQSKFEDLNKRKDTKEIYTHFTCATDTKNVQFVFDAVTDVIIKNNLKDCGLF
notes: Solubilized from membranes; in the assays occupied by L^F (fMLFK-FITC), which gives the signal; also called FPR-αi2; FPR-Gαi2
B5: fMLFFGGK (peptide)
peptide: For-MLFFGGK
notes: Synthesized by Commonwealth Biotechnologies; also called non-fluorescent ligand

No end group written: not given here. *: point of attachment. For = O=C* Some results are limits rather than exact numbers.

For assay [1], the target named is T2, G protein heterotrimer αi3β1H6γ2 (human, UniProt P62873 2-340; P59768 2-68). The experiment in a line: flow cytometry, L^FRG assembly on αi3β1H6γ2 DCNi beads, more nearly optimal conditions.
For assay [2], the target named is T2, G protein heterotrimer αi3β1H6γ2. The experiment in a line: flow cytometry, αi3β1H6γ2 on DCNi beads, 60 nM FPR with 75 nM L^F; uncoated beads about 9,000 fluorophores. The procedure: (§1) Each mixture was mixed by pipetting to ensure a uniform starting suspension of the beads in 96 V-well plates (Costar), and then mixed at low speed on a vortex mixer at 7° for two hours. The 10 μl assays were individually brought to 200 μl with 0.1% dodecyl maltoside in buffer A in 12×75 mm tubes for flow cytometric measurement of fluorescence of the beads. LRG assembly was defined as the difference between fluorescence without GTPγS and that with GTPγS. All determinations were done in duplicate.
(§2) The 10 μl assay was then diluted to 200 μl for spectrofluorimetric measurement. […] Uncoated beads were used in an assembly assay, bar 1, or were coated with G protein βγ only and used in an assembly assay, bar 2.
In general terms: A flow cytometer gives signals particle by particle.

The target in assay [3] is T3, β1H6γ2 dimer (human, UniProt P62873 2-340; P59768 2-68).
T3 construct: Purified from Sf9 cells and held on DCNi beads by the hexahistidine tag; also called βγ; Gβγ
In words: flow cytometry of DCNi beads coated with βγ, 60 nM FPR and 75 nM L^F, with 0.1 mM GTPγS only background fluorescence. On the procedure: as §1, §2

In assay [4] the target is T1, formyl peptide receptor with a …. In words: flow cytometry, hexahistidine-tagged FPR on DCNi beads, L^F titrated (FIG. 9E).
Procedure: The initial bead fluorescence was measured for twenty seconds, then an anti-FITC antibody was mixed with the beads, and the decrease in bead fluorescence was measured for another 100 seconds. The line shown is a best fit to a plateau, followed by an exponential decrease to the bottom.
The target in assay [5] is B1. The experiment in a line: spectrofluorimetry, solubilized FPR, free ligand quenched with anti-FITC antibody, ligand-binding curve of FIG. 8B.
Procedure: Fluorescence was measured with an SLM 8000 spectrofluorimeter (SLM Instruments, Inc.) using the photon counting mode. The sample holder was fitted with a cylindrical cuvette adapter, which allowed the use of 200 µl samples in 7 mm×45 mm cylindrical cuvettes (Sienco; Wheat Ridge, Colo.), stirred with 2×5 mm stir bars (Bel-Art). […] Emission was monitored using a 520+/−10 nm filter (Corion) and a 500 nm long-pass filter (Kopp; Pittsburg, Pa.). Additions to samples during kinetic measurements were made through an injection port on the top of the sample holder with 10 µl glass syringes (Hamilton; Reno, Nev.).
Assay [6] addresses T2, G protein heterotrimer αi3β1H6γ2. In words: flow cytometry, LR^FG assembly on αβγ DCNi beads against GTPγS background. On the procedure: as §1
For assay [7] the target is unchanged. In words: flow cytometry, LR^FG assembly on αβγ DCNi beads, FPR-GFP varied with saturating fMLFFGGK; binding nearly linear over the range (FIG. 12D).
The target in assay [8] is T3, β1H6γ2 dimer. In words: flow cytometry, β1H6γ2 on DCNi beads, 1 µM GTP against GTPγS background. On the procedure:
as §1

In the assay “FPR-GFP fusion protein” the target is B3. In words: flow cytometry, LR^FG assembly on αβγ DCNi beads, L varied; receptor depletes the ligand, so the filing says that the affinity of L for R^F is not revealed (FIG. 12C). The procedure: Standard LRG Assembly Assay. […] Each mixture was mixed by pipetting to ensure a uniform starting suspension of the beads in 96 V-well plates (Costar), and then mixed at low speed on a vortex mixer at 7° for two hours. The 10 μl assays were individually brought to 200 μl with 0.1% dodecyl maltoside in buffer A in 12×75 mm tubes for flow cytometric measurement of fluorescence of the beads. LRG assembly was defined as the difference between fluorescence without GTPγS and that with GTPγS. All determinations were done in duplicate.

T2 sequence (P62873 2-340, chain 1 of 2): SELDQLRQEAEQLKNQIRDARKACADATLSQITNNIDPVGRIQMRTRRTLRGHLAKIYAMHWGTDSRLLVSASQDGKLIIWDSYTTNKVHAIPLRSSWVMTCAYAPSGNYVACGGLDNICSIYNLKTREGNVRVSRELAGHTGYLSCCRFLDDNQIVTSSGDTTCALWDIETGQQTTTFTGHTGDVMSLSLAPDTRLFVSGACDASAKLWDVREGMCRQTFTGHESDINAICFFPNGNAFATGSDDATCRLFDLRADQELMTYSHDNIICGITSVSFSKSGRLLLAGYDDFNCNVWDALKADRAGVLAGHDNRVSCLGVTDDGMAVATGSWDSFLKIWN
T2 sequence (P59768 other isoform, or with tags, fused parts or gaps, chain 2 of 2): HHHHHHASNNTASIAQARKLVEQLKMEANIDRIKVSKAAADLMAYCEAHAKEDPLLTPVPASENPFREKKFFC
T3 sequence (P62873 2-340, chain 1 of 2): as the sequence (P62873 2-340, chain 1 of 2) above
T3 sequence (P59768 other isoform, or with tags, fused parts or gaps, chain 2 of 2): as the sequence (P59768 other isoform, or with tags, fused parts or gaps, chain 2 of 2) above

Molecule B1 gave a signal to background in assay [1] of at most 4 ratio. Further, the “bead fluorescence against uncoated beads” value in assay [2] is 3 fold. Also, in the assay with β1H6γ2 dimer [3], the binding result is recorded as “no binding”.

Regarding B2, the equilibrium dissociation constant (Kd) in [4] was about 8 nM; in assay [5], 4.8 nM.

Take B3: the “total binding to background ratio” value in [6] is 4.9 ratio. In addition, in assay [7], the Kd came out at 1000 nM. B4: the “total fluorescence to background ratio” value in the assay with β1H6γ2 dimer [8] is 2.7 ratio. B5 returned an EC50 in the assay with FPR-GFP fusion protein of 115 nM.

A word on the Kd: it is the constant that tells how readily two partners part at equilibrium. Higher therefore signals lower affinity. Broadly, the EC50 is the concentration at which the effect is half-maximal. Read a high EC50 as lower potency in that assay.
